Source: patent publication US20250333534A1 (HEFEI TG IMMUNOPHARMA, published 2025)
Numbering of substitutions follows the chain as printed.

B1: murine CD155 antibody (mutgi1005) (antibody, mouse IgG2a)
heavy: QVQMQQSGAELVKPGASVKLSCKTSGFTFSSSYISWLKQKPGQSLEWIAWIYAGTGDTNYNQKFTGKAQVTVDTSSSTAYMQFSSLTTEDSAIYYCVRHGSTGRGWYFAVWGAGTTVTVSSAKTTAPSVYPLAPVCGDTTGSSVTLGCLVKGYFPEPVTLTWNSGSLSSGVHTFPAVLQSDLYTLSSSVTVTSSTWPSQSITCNVAHPASSTKVDKKIEPRGPTIKPCPPCKCPAPNLLGGPSVFIFPPKIKDVLMISLSPIVTCVVVDVSEDDPDVQISWFVNNVEVHTAQTQTHREDYNSTLRVVSALPIQHQDWMSGKEFKCKVNNKDLPAPIERTISKPKGSVRAPQVYVLPPPEEEMTKKQVTLTCMVTDFMPEDIYVEWTNNGKTELNYKNTEPVLDSDGSYFMYSKLRVEKKNWVERNSYSCSVVHEGLHNHHTTKSFSRTPGK
light: QAVVTQESALTTSPGETVTLTCRSSTGAVTTSNYANWVQEKPDHLFTGLIGGTNNRAPGVPARFSGSLIGDKAALTITGAQTEDEAIYFCALWYSNHFVFGGGTKLTVLQPKSSPSVTLFPPSSEELETNKATLVCTITDFYPGVVTVDWKVDGTPVTQGMETTQPSKQSNNKYMASSYLTLTARAWERHSSYSCQVTHEGHTVEKSLSRADCS
notes: also called murine monoclonal antibody; murine antibody
B2: human-mouse chimeric antibody mutgi1005-hIgG4 (antibody)
heavy: not shown
light: QAVVTQESALTTSPGETVTLTCRSSTGAVTTSNYANWVQEKPDHLFTGLIGGTNNRAPGVPARFSGSLIGDKAALTITGAQTEDEAIYFCALWYSNHFVFGGGTKLTVLGQPKAAPSVTLFPPSSEELQANKATLVCLISDFYPGAVTVAWKADSSPVKAGVETTTPSKQSNNKYAASSYLSLTPEQWKSHRSYSCQVTHEGSTVEKTVAPTECS
notes: Murine variable regions fused with wild-type human IgG4 and lambda constant regions; also called mutgi1005-hlgG4; chimeric CD155 antibody
B3: affinity-matured humanized antibody V21 (tgi1005 V21-hIgG1/4) (antibody, V domains shown)
VH: QVQLVQSGAEVKKPGASVKVSCKASGYTFTSSYISWVRQAPGQGLEWIAWIYAGTGDTNYNQKFTGRVTMTTDTSTSTAYMELRSLRSDDTAVYYCARHGYTGRGWYFAVWGQGTTVTVSS
VL: QAVVTQEPSLTVSPGGTVTLTCRSSTGAVTTSNYANWVQQKPGQAFRGLIGGTNNRAPGVPARFSGSLLGDKAALTLSGAQPEDEAEYYCILWYSNHFVFGGGTKLTVL
B4: affinity-matured humanized antibody V20 (tgi1005 V20-hIgG1/4/1LALA) (antibody, V domains shown)
VH: B3 VH
VL: B3 VL with Y34L, G52H, I91A, H97K
B5: affinity-matured humanized antibody V40 (tgi1005 V40-hIgG1/4) (antibody, V domains shown)
VH: B3 VH with Y101M
VL: B3 VL with Y34L, G52H, H97K
B6: affinity-matured humanized antibody V28 (tgi1005 V28-hIgG1/4/1LALA) (antibody, V domains shown)
VH: B3 VH with Y101L, G105H
VL: B3 VL with Y34I, A57G, H97K
B7: human-mouse chimeric antibody mutgi1005-hIgG1 (antibody)
heavy: not shown
light: B2 light
notes: Murine variable regions fused with wild-type human IgG1 and lambda constant regions; also called chimeric CD155 antibody

Molecular target: T1, Human CD155 protein (Human CD155), expressed on cells (human, UniProt P15151 21-417)
T1 construct: also called CHO-K1-human CD155; CHO-K1-CD155
T1 sequence: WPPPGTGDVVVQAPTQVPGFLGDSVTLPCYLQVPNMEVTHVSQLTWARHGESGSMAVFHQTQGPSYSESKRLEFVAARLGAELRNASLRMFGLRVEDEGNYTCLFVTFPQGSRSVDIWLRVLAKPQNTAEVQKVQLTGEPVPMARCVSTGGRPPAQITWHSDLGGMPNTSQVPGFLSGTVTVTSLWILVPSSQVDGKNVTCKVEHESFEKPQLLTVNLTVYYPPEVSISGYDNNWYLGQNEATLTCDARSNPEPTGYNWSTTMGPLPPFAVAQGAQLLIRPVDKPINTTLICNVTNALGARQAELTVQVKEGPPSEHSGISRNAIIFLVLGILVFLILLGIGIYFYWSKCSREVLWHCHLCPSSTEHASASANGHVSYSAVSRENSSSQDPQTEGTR
Test: flow cytometry on CHO-K1-human CD155 cells

Binder	binding result
B1	binds
B2	binds
B3	binds
B4	binds
B5	binds
B6	binds
B7	binds
